Source: the supplement of paper PMC11246515
± gives the standard deviation of the averaged measurements.

Experiment: total protein half-life in vivo (active degradation + dilution); higher = more stable protein
[1] = E. coli NCM3722 delta-clpP delta-lon delta-hslV, growth: N-lim chemostat, doubling time 6 h
[2] = E. coli NCM3722 delta-clpP, growth: N-lim chemostat, doubling time 6 h
[3] = E. coli NCM3722 delta-lon, growth: N-lim chemostat, doubling time 6 h
[4] = E. coli NCM3722 delta-smpB, growth: N-lim chemostat, doubling time 6 h
[5] = wild type E. coli NCM3722, growth: C-lim chemostat, doubling time 3 h
[6] = wild type E. coli NCM3722, growth: C-lim chemostat, doubling time 6 h
[7] = wild type E. coli NCM3722, growth: C-lim chemostat, doubling time 12 h
[8] = wild type E. coli NCM3722, growth: N-lim chemostat, doubling time 6 h
[9] = wild type E. coli NCM3722, growth: N-lim chemostat, doubling time 12 h
[10] = wild type E. coli NCM3722, growth: P-lim chemostat, doubling time 6 h
[11] = wild type E. coli NCM3722, growth: P-lim chemostat, doubling time 12 h
[12] = E. coli NCM3722 delta-hslV, growth: N-lim chemostat, doubling time 6 h

## MIGSLTARIFAIFWLTLALVLMLVLMLPKLDSRQMTELLDSEQRQGLMIEQHVEAELANDPPNDLMWWRRLFRAIDKWAPPGQRLLLVTTEGRVIGAERSEMQIIRNFIGQADNADHPQKKKYGRVELVGPFSVRDGEDNYQLYLIRPASSSQSDFINLLFDRPLLLLIVTMLVSTPLLLWLAWSLAKPARKLKNAADEVAQGNLRQHPELEAGPQEFLAAGASFNQMVTALERMMTSQQRLLSDISHELRTPLTRLQLGTALLRRRSGESKELERIETEAQRLDSMINDLLVMSRNQQKNALVSETIKANQLWSEVLDNAAFEAEQMGKSLTVNFPPGPWPLYGNPNALESALENIVRNALRYSHTKIEVGFAVDKDGITITVDDDGPGVSPEDREQIFRPFYRTDEARDRESGGTGLGLAIVETAIQQHRGWVKAEDSPLGGLRLVIWLPLYKRS [P0AE82]
[1]
  total protein half-life in vivo: 6.5 ± 0.57 h
[2]
  total protein half-life in vivo: 6.88 ± 0.076 h
[3]
  total protein half-life in vivo: 5.674 ± 0.024 h
[4]
  total protein half-life in vivo: 5.86 ± 0.35 h
[5]
  total protein half-life in vivo: 2.971 ± 0.0099 h
[6]
  total protein half-life in vivo: 5.92 ± 0.31 h
[7]
  total protein half-life in vivo: 9.91 ± 1.8 h
[8]
  total protein half-life in vivo: 6.07 ± 0.074 h
[9]
  total protein half-life in vivo: 12.8 ± 0.79 h
[10]
  total protein half-life in vivo: 5.98 ± 0.15 h
[11]
  total protein half-life in vivo: 11.8 ± 0.38 h

## MRHCGWLLGLLSLFSLATHASDWQEIKNEAKGQTVWFNAWGGDTAINRYLDWVSGEMKTHYAINLKIVRLADAADAVKRIQTEAAAGRKTGGSVDLLWVNGENFRTLKEANLLQTGWAETLPNWRYVDTQLPVREDFSVPTQGAESPWGGAQLTFIARRDVTPQPPQTPQALLEFAKANPGTVTYPRPPDFTGTAFLEQLLIMLTPDPAALKEAPDDATFARVTAPLWQYLDVLHPYLWREGKDFPPSPARMDALLKAGTLRLSLTFNPAHAQQKIASGDLPASSYSFGFREGMIGNVHFVTIPANANASAAAKVVANFLLSPDAQLRKADPAVWGDPSVLDPQKLPDGQRESLQSRMPQDLPPVLAEPHAGWVNALEQEWLHRYGTH
[1]
  total protein half-life in vivo: 5.63 ± 0.51 h
[2]
  total protein half-life in vivo: 6.09 ± 0.099 h
[12]
  total protein half-life in vivo: 6.22 ± 0.27 h
[3]
  total protein half-life in vivo: 6.17 ± 0.65 h
[4]
  total protein half-life in vivo: 5.628 ± 0.055 h
[5]
  total protein half-life in vivo: 3.45 ± 0.33 h
[6]
  total protein half-life in vivo: 6.17 ± 0.22 h
[7]
  total protein half-life in vivo: 13.7 ± 0.41 h
[8]
  total protein half-life in vivo: 6.027 ± 0.021 h
[9]
  total protein half-life in vivo: 13.4 ± 0.98 h
[10]
  total protein half-life in vivo: 6.54 ± 0.45 h
[11]
  total protein half-life in vivo: 12.3 ± 1.5 h

## MIKRTLLAAAIFSALPAYAGLTSITAGYDFTDYSGDHGNRNLAYAELVAKVENATLLFNLSQGRRDYETEHFNATRGQGAVWYKWNNWLTTRTGIAFADNTPVFARQDFRQDINLALLPKTLFTTGYRYTKYYDDVEVDAWQGGVSLYTGPVITSYRYTHYDSSDAGGSYSNMISVRLNDPRGTGYTQLWLSRGTGAYTYDWTPETRYGSMKSVSLQRIQPLTEQLNLGLTAGKVWYDTPTDDFNGLQLAARLTWKF
[4]
  total protein half-life in vivo: > 8 h
[7]
  total protein half-life in vivo: 15.4 h

## MQARVKWVEGLTFLGESASGHQILMDGNSGDKAPSPMEMVLMAAGGCSAIDVVSILQKGRQDVVDCEVKLTSERREEAPRLFTHINLHFIVTGRDLKDAAVARAVDLSAEKYCSVALMLEKAVNITHSYEVVAA [P0ADX1]
[1]
  total protein half-life in vivo: 5.2 ± 0.18 h
[2]
  total protein half-life in vivo: 5.55 ± 1.8 h
[12]
  total protein half-life in vivo: 4.69 ± 0.32 h
[3]
  total protein half-life in vivo: 5.8 ± 1.1 h
[4]
  total protein half-life in vivo: 5.32 ± 0.37 h
[5]
  total protein half-life in vivo: > 4 h
[6]
  total protein half-life in vivo: 6.49 ± 0.41 h
[7]
  total protein half-life in vivo: 10.8 ± 3.3 h
[8]
  total protein half-life in vivo: 4.88 ± 0.78 h
[9]
  total protein half-life in vivo: 8.73 ± 0.8 h
[10]
  total protein half-life in vivo: 5.45 ± 0.51 h

## MATAKKITIHDVALAAGVSVSTVSLVLSGKGRISTATGERVNAAIEELGFVRNRQASALRGGQSGVIGLIVRDLSAPFYAELTAGLTEALEAQGRMVFLLHGGKDGEQLAQRFSLLLNQGVDGVVIAGAAGSSDDLRRMAEEKAIPVIFASRASYLDDVDTVRPDNMQAAQLLTEHLIRNGHQRIAWLGGQSSSLTRAERVGGYCATLLKFGLPFHSDWVLECTSSQKQAAEAITALLRHNPTISAVVCYNETIAMGAWFGLLKAGRQSGESGVDRYFEQQVSLAAFTDATPTTLDDIPVTWASTPARELGITLADRMMQKITHEETHSRNLIIPARLIAAK
[1]
  total protein half-life in vivo: 6.29 ± 0.064 h
[2]
  total protein half-life in vivo: 6.58 ± 1.8 h
[12]
  total protein half-life in vivo: 4.56 h
[3]
  total protein half-life in vivo: 5.27 ± 0.39 h
[4]
  total protein half-life in vivo: 4.45 ± 0.36 h
[5]
  total protein half-life in vivo: 2.7 ± 0.15 h
[6]
  total protein half-life in vivo: 5.25 ± 0.078 h
[7]
  total protein half-life in vivo: 8.757 ± 0.013 h
[8]
  total protein half-life in vivo: 4.64 ± 0.33 h
[9]
  total protein half-life in vivo: 8.39 ± 2.1 h
[10]
  total protein half-life in vivo: 4.36 ± 0.092 h
[11]
  total protein half-life in vivo: 9.01 ± 0.16 h
